From patent publication EP4785962A1, “ANTIBODY-DRUG CONJUGATE TARGETING TROP2, AND PREPARATION METHOD AND USE THEREFOR” (priority 2023, dated 2025)

Assay: ADC in vivo stability assay in mice (serum ELISA for ADC and total antibody)
Design: species or system Balb/c mice
Conditions: 10 mg/kg via the tail vein
Procedure: • 1. The antibody-drug conjugate was injected into Balb/c mice (Vital River) via the tail vein at a dose of 10 mg/kg, and blood was collected at 0.083 h, 0.5 h, 2 h, 6 h, 24 h, 48 h, 96 h, 168 h, 336 h, and 504 h after administration (FIG. 10A). The blood samples were left to stand at room temperature and centrifuged to collect serum, so as to test the stability of the drug in the mice. • 2. Antibody detection: TROP2 protein (ACRO, cat: TR2-H5223, lot: 2573-2316F1-1B9) was coated and incubated overnight at 4 °C (FIG. 10A). The coating protein solution was removed, and 300 µL of wash buffer (0.05% Tween 20) was added to each well for repeated washing 3 times. 200 µL of blocking solution (5% skim milk powder) was added to each well, and the plate was blocked at room temperature for 2 h. The blocking solution was discarded, and the plate was washed 3 times with 300 µL of wash buffer per well. The diluted standards, quality control samples, and mouse serum samples to be tested were added to the well plate and incubated at room temperature for 2 h. The sample solution was discarded, and 300 µL of wash buffer was added to each well for 3 times of repeated washing. Anti-hFc-HRP (BETHYL, cat:A80-104P, lot: 97) was diluted 20000-fold and added at 100 µL/well, and the plate was incubated at room temperature for 1 h. The liquid was removed, and 300 µL of wash buffer was added to each well for 6 times of repeated washing. 100 µL of TMB substrate (Solarbio, cat:PR1200, lot: 20230418) was added to each well, and the color development was performed at room temperature for 5-10 min in the dark. 50 µL of ELISA stop solution (Beijing Solarbio C1058 20190620) was added to each well, medium-speed shaking for 10 s, within 30 min, the OD values at 450 nm and 620 nm were read on a microplate reader (USA, Thermo Multiskan FC AS-A1-008). • 3. Antibody-drug conjugate ADC detection: an anti-payload antibody 18E7C9 (innovent, lot: 20220424) was coated and incubated at 4 °C overnight (FIG. 10A). The coating protein solution was discarded, and 300 µL of wash buffer (0.05% Tween 20) was added to each well for 3 repeated washes. 200 µL of blocking solution (5% skim milk powder) was added to each well, and the plate was blocked at room temperature for 2 h. The blocking solution was discarded, and the plate was washed 3 times with 300 µL of wash buffer per well. The diluted standards, quality control samples, and mouse serum samples to be tested were added to the well plate and incubated at room temperature for 2 h. The sample solution was discarded, and 300 µL of wash buffer was added to each well for 3 times of repeated washing. Biotinylated TROP2 protein (ACRO, cat: TR2-H82E5, lot:BV3055-91PF1-ZC) was added to the microplate and incubated at room temperature for 2 h. The liquid was removed, and 300 µL of wash buffer was added to each well for 3 times of repeated washing. SA-HRP (Biolegend, cat:405210, lot: B339457) was diluted 20,000-fold and added at 100 µL/well, and the plate was incubated at room temperature for 1 h. The liquid was removed, and 300 µL of wash buffer was added to each well for 6 times of repeated washing. 100 µL of TMB substrate (Solarbio, cat:PR1200, lot: 20230418) was added to each well, and the color development was performed at room temperature for 5-10 min in the dark. 50 µL of ELISA stop solution (Beijing Solarbio C1058 20190620) was added to each well, medium-speed shaking for 10 s, within 30 min, the OD values at 450 nm and 620 nm were read on a microplate reader (USA, Thermo Multiskan FC AS-A1-008).

B1: hTINA1-DXd: control ADC: antibody hTINA1 conjugated with Linker-DXd, average DAR 4.3; TROP2-ADC from Daiichi Sankyo (conjugate, chains of the INN, looked up)
VH: QVQLVQSGAEVKKPGASVKVSCKASGYTFTTAGMQWVRQAPGQGLEWMGWINTHSGVPKYAEDFKGRVTISADTSTSTAYLQLSSLKSEDTAVYYCARSGFGSSYWYFDVWGQGTLVTVSS
VL: DIQMTQSPSSLSASVGDRVTITCKASQDVSTAVAWYQQKPGKAPKLLIYSASYRYTGVPSRFSGSGSGTDFTLTISSLQPEDFAVYYCQQHYITPLTFGQGTKLEIK
modifications: deruxtecan (Linker-DXd), DAR 4.3
notes: control ADC: antibody hTINA1 conjugated with Linker-DXd, average DAR 4.3; TROP2-ADC from Daiichi Sankyo
AUC (Analysis Type ADC): 12053.60 µg·h/mL
Cl_obs (Analysis Type ADC): 19.9 mL/day/kg
T-half (Analysis Type ADC): 154.59 h
AUC (Analysis Type Total-Ab): 35805.22 µg·h/mL
Cl_obs (Analysis Type Total-Ab): 6.72 mL/day/kg
T-half (Analysis Type Total-Ab): 374.37 h
